From patent publication US20160146829A1 (University of California, published 2016) come the findings set out here.

For experiment [1], the target named is T1, pCp-1B, biotinylated alemtuzumab binding peptide (not fully specified (bridges); also: incubated with sodium tetrathionate (oxidizing) before binding).
T1 construct: Synthetic peptide (Sigma-Genosys); For ELISA it was captured on NeutrAvidin plates; also called Cp-1 (biotinylated peptide)
T1 peptide: ACGSLSPSSCGGK(Biotin)
The experiment can be described thus: nano-pore optical interferometry (SkiPro); biotinylated peptide on streptavidin chip, whole mAb in solution.

Experiment [2] addresses T1, pCp-1B, biotinylated alemtuzumab …. In words: peptide ELISA, biotinylated peptide on NeutrAvidin plate, antibody diluted in TBST, anti-human IgG POD detection. A general note: ELISA stands for enzyme-linked immunosorbent assay.

For orientation: Kd means the constant that tells how readily two partners part at equilibrium. Read a low Kd as higher affinity. A word on the koff: it is the first-order rate constant of dissociation. A low value points to a long-lived complex. One may read the kon as the second-order rate constant of association. What is called EC50 (read off the curve) is the concentration that produces a half-maximal response. Lower therefore signals greater potency.

Ends that are not written are not given here. * marks the point of attachment. Biotin = O=C1N[C@H]2[C@H](CS[C@H]2CCCCC(=O)*)N1

B1: alemtuzumab (antibody, V domains shown)
VH: QVQLQESGPGLVRPSQTLSLTCTVSGFTFTDFYMNWVRQPPGRGLEWIGFIRDKAKGYTTEYNPSVKGRVTMLVDTSKNQFSLRLSSVTAADTAVYYCAREGHTAAPFDYWGQGSLVTVSS
VL: DIQMTQSPSSLSASVGDRVTITCKASQNIDKYLNWYQQKPGKAPKLLIYNTNNLQTGVPSRFSGSGSGTDFTFTISSLQPEDIATYYCLQHISRPRTFGQGTKVEIKR
In experiment [1], B1 registered a Kd of 163 nM, a dissociation rate constant (koff) of 0.00132 s⁻¹ and an on-rate (kon) of 8130 M⁻¹ s⁻¹. In addition, the half-maximal effective concentration (EC50 (read off the curve)) in experiment [2] is around 0.3 µg/mL.
